Target: His6-Z_GFP 11 (GFP 11 genetically fused to the C-terminus of the IgG binding Z domain derived from protein A)
Assay: split reporter (BiFC, NanoBiT); split-GFP fluorescence complementation in solution, 96-well plate, TNG buffer, 225 µM His6-Z_GFP 11 and 0.2 µM GFP 1–10 variant, 25 °C, excitation 488 nm, emission 535 nm, controls without His6-Z_GFP 11 subtracted

rate of increase of the fluorescent signal after adding His6-Z GFP 11 [a.u./second]	rate of increase of the fluorescent signal after adding His6-Z GFP 11, additional hour after the first two minutes [a.u./sec]	rate of increase of the fluorescent signal after adding His6-Z GFP 11, first two minutes [a.u./sec]	Substance
0.5	–	–	GFP 1–10 OPT (non-maturated) (domain or fragment)
–	6	83	GFP 1–10^mat (GFP 1–10 with maturated chromophore) (domain or fragment)
